# B1: Vpxsm/DCAF1-CtD (complex)
# chain 1: MSDPRERIPPGNSGEETIGEAFDWLDRTVEEINRAAVNHLPRELIFQVWRRSWEYWHDEMGMSVSYTKYRYLCLIQKAMFMHCKKGCRCLGGEHGAGGWRPGPPPPPPPGLA
# chain 2: not shown
# Biological target: SAMHD1(26-626) (human, UniProt Q9Y3Z3 26-626)
# Assay: SEC
# Sequence of SAMHD1(26-626) (Q9Y3Z3 26-626): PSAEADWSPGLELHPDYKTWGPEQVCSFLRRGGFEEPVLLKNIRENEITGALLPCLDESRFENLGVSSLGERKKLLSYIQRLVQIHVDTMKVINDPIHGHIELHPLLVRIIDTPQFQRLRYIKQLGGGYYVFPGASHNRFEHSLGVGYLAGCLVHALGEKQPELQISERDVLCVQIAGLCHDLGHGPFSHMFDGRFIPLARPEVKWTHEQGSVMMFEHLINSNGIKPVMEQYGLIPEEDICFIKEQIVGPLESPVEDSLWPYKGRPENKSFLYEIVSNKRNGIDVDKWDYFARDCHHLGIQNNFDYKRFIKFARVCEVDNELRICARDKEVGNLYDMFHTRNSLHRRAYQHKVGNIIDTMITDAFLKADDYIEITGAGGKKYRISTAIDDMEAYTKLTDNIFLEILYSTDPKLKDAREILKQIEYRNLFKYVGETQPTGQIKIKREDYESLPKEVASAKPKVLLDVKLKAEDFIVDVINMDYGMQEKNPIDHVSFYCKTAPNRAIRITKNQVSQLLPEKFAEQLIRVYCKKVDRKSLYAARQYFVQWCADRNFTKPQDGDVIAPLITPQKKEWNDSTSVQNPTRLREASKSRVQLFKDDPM
binder,measurement,value
B1,binding result,binds
